Measured values from publication PMC9719943, “Expression and structural analysis of human neuroligin 2 and neuroligin 3 implicated in autism spectrum disorders” (Frontiers in Endocrinology, 2022).

B1: full-length human NLGN3 (natural protein, UniProt Q9NZ94 38-848, looked up)
chain: QAPAPTVNTHFGKLRGARVPLPSEILGPVDQYLGVPYAAPPIGEKRFLPPEPPPSWSGIRNATHFPPVCPQNIHTAVPEVMLPVWFTANLDIVATYIQEPNEDCLYLNVYVPTEDVKRISKECARKPNKKICRKGGSGAKKQGEDLADNDGDEDEDIRDSGAKPVMVYIHGGSYMEGTGNMIDGSILASYGNVIVITLNYRVGVLGFLSTGDQAAKGNYGLLDQIQALRWVSENIAFFGGDPRRITVFGSGIGASCVSLLTLSHHSEGLFQRAIIQSGSALSSWAVNYQPVKYTSLLADKVGCNVLDTVDMVDCLRQKSAKELVEQDIQPARYHVAFGPVIDGDVIPDDPEILMEQGEFLNYDIMLGVNQGEGLKFVEGVVDPEDGVSGTDFDYSVSNFVDNLYGYPEGKDTLRETIKFMYTDWADRDNPETRRKTLVALFTDHQWVEPSVVTADLHARYGSPTYFYAFYHHCQSLMKPAWSDAAHGDEVPYVFGVPMVGPTDLFPCNFSKNDVMLSAVVMTYWTNFAKTGDPNKPVPQDTKFIHTKANRFEEVAWSKYNPRDQLYLHIGLKPRVRDHYRATKVAFWKHLVPHLYNLHDMFHYTSTTTKVPPPDTTHSSHITRRPNGKTWSTKRPAISPAYSNENAQGSWNGDQDAGPLLVENPRDYSTELSVTIAVGASLLFLNVLAFAALYYRKDKRRQEPLRQPSPQRGAGAPELGAAPEEELAALQLGPTHHECEAGPPHDTLRLTALPDYTLTLRRSPDDIPLMTPNTITMIPNSLVGLQTLHPYNTFAAGFNSTGLPHSHSTTRV
notes: neuroligin 3 (NLGN3), human, full-length gene in pCDNA3.1; UniProt ID Q9NZ94 printed for NLGN3; also called neuroligin 3
B2: extracellular domain of human NLGN2 (domain or fragment, UniProt Q8NFZ4 15-677, looked up)
chain: QRGGGGPGGGAPGGPGLGLGSLGEERFPVVNTAYGRVRGVRRELNNEILGPVVQFLGVPYATPPLGARRFQPPEAPASWPGVRNATTLPPACPQNLHGALPAIMLPVWFTDNLEAAATYVQNQSEDCLYLNLYVPTEDGPLTKKRDEATLNPPDTDIRDPGKKPVMLFLHGGSYMEGTGNMFDGSVLAAYGNVIVATLNYRLGVLGFLSTGDQAAKGNYGLLDQIQALRWLSENIAHFGGDPERITIFGSGAGASCVNLLILSHHSEGLFQKAIAQSGTAISSWSVNYQPLKYTRLLAAKVGCDREDSAEAVECLRRKPSRELVDQDVQPARYHIAFGPVVDGDVVPDDPEILMQQGEFLNYDMLIGVNQGEGLKFVEDSAESEDGVSASAFDFTVSNFVDNLYGYPEGKDVLRETIKFMYTDWADRDNGEMRRKTLLALFTDHQWVAPAVATAKLHADYQSPVYFYTFYHHCQAEGRPEWADAAHGDELPYVFGVPMVGATDLFPCNFSKNDVMLSAVVMTYWTNFAKTGDPNQPVPQDTKFIHTKPNRFEEVVWSKFNSKEKQYLHIGLKPRVRDNYRANKVAFWLELVPHLHNLHTELFTTTTRLPPYATRWPPRPPAGAPGTRRPPPPATLPPEPEPEPGPRAYDRFPGDSRDYSTELS
notes: neuroligin 2 (NLGN2), human, extracellular domain; Subcloned into the secretory vector pSecTAG2B; also called neuroligin 2; NLGN2 ectodomain; source: Expi293F (HEK293F) cells, transiently transfected, purified (nickel resin, Superose 6 SEC)

Biological target: the molecule itself
Assay: cryo-EM structure; purified NLGNs at 0.25 mg/ml on holey carbon grids; protein in 25 mM HEPES pH 7.5, 150 mM NaCl; homodimer, C2 symmetry

Protein | stoichiometry N
B1 | 2
B2 | 2
